Reference: PMC8047080, “Engineering Cofactor Specificity of a Thermostable Phosphite Dehydrogenase for a Highly Efficient and Robust NADPH Regeneration System” (Frontiers in Bioengineering and Biotechnology, 2021)

B1: RsPtxD (Ralstonia sp. 4506) (protein)
chain: MKPKVVLTHWVHPEIIELLSASADVIPNTTRETLPRSEVIARAKDADALMAFMPDSIDSAFLEECPKLRVIGAALKGYDNFDVNACTRHGVWLTIVPDLLTIPTAELTIGLLLGLTRHMLEGDRQIRSGHFQGWRPTLYGSGLTGKTLGIIGMGAVGRAIAQRLAGFEMNLLYCDPIPLNAEQEKAWHVQRVTLDELLEKCDYVVPMVPMAAETLHLIDATALAKMKTGSYLINACRGSVVDENAVIAALASGKLAGYAADVFEMEEWIRADRPQAIPKALLDNTAQTFFTPHLGSAVKEVRLEIERQAAMNIIQALAGEKPMGAINQPYPGVKAA

How the values were obtained:
[1] = target: T1, shikimate dehydrogenase (SDH) (Thermus thermophilus, UniProt Q5SJF8); experiment: HPLC ([…] nm) of shikimic acid formed in coupled reaction with RsPtxD; type: biochemical; details: NADPH regenerated from 0.1 mM NADP by RsPtxD HARRA mutant; 20 mM phosphite; 100 mM HEPES pH 8.0; 45°C
T1 construct: gene aroE; pET-11a in E. coli Rosetta 2 (DE3) pLysS; heat treatment at 80°C and HiTrap SP purification
T1 sequence (Q5SJF8 1-263): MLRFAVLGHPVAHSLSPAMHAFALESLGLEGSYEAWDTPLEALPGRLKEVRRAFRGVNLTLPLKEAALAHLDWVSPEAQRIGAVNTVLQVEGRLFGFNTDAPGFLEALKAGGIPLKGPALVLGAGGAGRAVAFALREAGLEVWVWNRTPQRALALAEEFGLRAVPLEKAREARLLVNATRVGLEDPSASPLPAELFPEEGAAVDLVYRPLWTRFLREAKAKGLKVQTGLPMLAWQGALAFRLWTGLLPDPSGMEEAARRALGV

[2] = test system: NC(=O)c1ccc[n+]([C@@H]2O[C@H](COP(=O)(O)OP(=O)(O)OC[C@H]3O[C@@H](n4cnc5c(N)ncnc54)[C@H](O)[C@@H]3O)[C@@H](O)[C@H]2O)c1; experiment: purified protein; details: 1 mM phosphite, 100 mM MOPS pH 7.3
[3] = test system: NC(=O)c1ccc[n+]([C@@H]2O[C@H](COP(=O)(O)OP(=O)(O)OC[C@H]3O[C@@H](n4cnc5c(N)ncnc54)[C@H](OP(=O)(O)O)[C@@H]3O)[C@@H](O)[C@H]2O)c1; experiment: purified protein; details: 1 mM phosphite, 100 mM MOPS pH 7.3
[4] = test system: O=[PH](O)O; experiment: purified protein; details: 1 mM NADP as co-substrate, 100 mM MOPS pH 7.3
[5] = substrate: NC(=O)c1ccc[n+]([C@@H]2O[C@H](COP(=O)(O)OP(=O)(O)OC[C@H]3O[C@@H](n4cnc5c(N)ncnc54)[C@H](OP(=O)(O)O)[C@@H]3O)[C@@H](O)[C@H]2O)c1; experiment: purified protein; details: 1 mM phosphite, 100 mM MOPS pH 7.3; remark: listed apart in the source
[6] = substrate: NC(=O)c1ccc[n+]([C@@H]2O[C@H](COP(=O)(O)OP(=O)(O)OC[C@H]3O[C@@H](n4cnc5c(N)ncnc54)[C@H](O)[C@@H]3O)[C@@H](O)[C@H]2O)c1; experiment: purified protein; details: 1 mM phosphite, 100 mM MOPS pH 7.3; remark: listed apart in the source
[7] = substrate: O=[PH](O)O; experiment: purified protein; details: 1 mM NAD as co-substrate, 100 mM MOPS pH 7.3

Molecule	HPLC (230 nm) of shikimic acid formed in coupled reaction with RsPtxD [1]	Km [2] [µM]	kcat [2] [min^–1]	kcat/Km [2] [M⁻¹ s⁻¹]	Km [3] [µM]	kcat [3] [min^–1]	kcat/Km [3] [M⁻¹ s⁻¹]	Km [4] [µM]	Km [5] [µM]	kcat [5] [min^–1]	Km [6] [µM]	kcat [6] [min^–1]	kcat/Km [6] [M⁻¹ s⁻¹]	Km [7] [µM]
NC(=O)C1=CN([C@@H]2O[C@H](COP(=O)(O)OP(=O)(O)OC[C@H]3O[C@@H](n4cnc5c(N)ncnc54)[C@H](OP(=O)(O)O)[C@@H]3O)[C@@H](O)[C@H]2O)C=CC1 [NADPH]	SDH catalyzes the reduction of 3-DHS to SA													
RsPtxD (Ralstonia sp. 4506; C174H/D175A/P176R)		154 ± 14.7	155 ± 2.3	16700	24 ± 5.2	118 ± 6.8	81700							
RsPtxD (Ralstonia sp. 4506; C174H/D175A/I177K/P176R/P178A)		130 ± 10.6	154 ± 7.5	20000	4.4 ± 0.9	129 ± 12.1	493000	27 ± 9.0						
RsPtxD (Ralstonia sp. 4506; D175A/P176R)		412 ± 21.5	115 ± 13.0	5000	56 ± 5.1	91.1 ± 3.9	26700							
RsPtxD (Ralstonia sp. 4506; C174H/D175A/I177R/P176R/P178A)		112 ± 1.3	148 ± 14.8	21700	2.9 ± 0.5	128 ± 16.6	735000	38 ± 8.5						
B1									418 ± 38.7	16.0 ± 6.3	7.7 ± 2.3	127 ± 16.8	277000	37.0 ± 7.0
